Paper PMC10183829, “Shuffled ATG8 interacting motifs form an ancestral bridge between UFMylation and autophagy” (The EMBO Journal, 2023)

Legend:
[1] = target: GST-GABARAP (UniProt O95166); assay: microscopy-based protein-protein interaction assay (on-bead binding, confocal); settings: 1 μM C53 protein; glutathione-sepharose beads with GST-GABARAP; parent: est. 1.0; read off a plot
[2] = target: GST-ATG8A (Arabidopsis thaliana) (UniProt Q8LEM4); assay: microscopy-based on-bead protein-protein interaction assay
GST-ATG8A (Arabidopsis thaliana), sequence (Q8LEM4 1-117): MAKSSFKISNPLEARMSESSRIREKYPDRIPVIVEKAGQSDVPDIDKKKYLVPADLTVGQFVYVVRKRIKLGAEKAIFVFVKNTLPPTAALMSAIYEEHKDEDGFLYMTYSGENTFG

GST-GABARAP, sequence (O95166 whole entry): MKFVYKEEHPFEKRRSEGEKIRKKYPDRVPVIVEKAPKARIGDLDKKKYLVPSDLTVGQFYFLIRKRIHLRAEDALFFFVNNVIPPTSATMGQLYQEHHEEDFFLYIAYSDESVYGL

Substance: mCh-AtC53, Q9FG23 IDWD274WDDI; IDWD285WDDI; IDWD333WDDI
- response (normalized fluorescence) [1]: 1.4

Substance: mCh-AtC53^cAIM (IDWD274WDDI, IDWD285WDDI, IDWD333WDDI) (natural protein)
- percent more efficiently recruited than the wild type [2]: 22%
